# Results from patent US20090202526A1 (RINAT NEUROSCIENCE, published 2009).
# Where a chain is given by its changes, count along the chain named. Several values for one entry are separate records, joined by “and”; a condition that tells them apart may be missing. Equal values may be shown once.
# B1: Antibody A5, full IgG (antibody, V domains shown)
# VH: QVQLVQSGAEVKKPGASVKVSCKASGYTFTSYRIHWVRQAPGQGLEWMGEIYPSNARTNYNEKFKSRVTMTRDTSTSTVYMELSSLRSEDTAVYYCARKYYYGNTRRSWYFDVWGQGTTVTVSS
# VL: DIQMTQSPSSLSASVGDRVTITCRASESIDNYGISFLAWYQQKPGKAPKLLIYAASNRGSGVPSRFSGSGSGTDFTFTISSLQPEDIATYYCQQSKTVPRTFGQGTKLEIKR
# B2: Mouse monoclonal agonist anti-trkC antibody 2256 (antibody, V domains shown)
# VH: QVQLQQPGAELVKPGASVKLSCKASGYTFTSYWMHWVKQRPGQGLEWIGEIYPSNGRTNYNEKFKSKATLTVDKSSSTAYMQLSSLTSEDSAVYYCARKYYYGNSYRSWYFDVWGAGTTLTVS
# VL: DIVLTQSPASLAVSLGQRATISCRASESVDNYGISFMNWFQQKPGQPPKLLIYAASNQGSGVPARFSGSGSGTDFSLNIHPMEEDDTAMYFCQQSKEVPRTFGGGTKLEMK
# notes: Mouse monoclonal antibody
# B3: Fab clone 129(T8)(H8xE10)(10B) (Fab, V domains shown)
# VH: QVQLVQSGAEVKKPGASVKVSCKASGYTFTSYRIHWVRQAPGQGLEWMGEIYPSNSRTNYNEKFKSRVTMTRDTSTSTVYMELSSLRSEDTAVYYCARKYYYGNSRRSWYFDVWGQGTTVTVS
# VL: B1 VL
# B4: Fab clone 129(T8) (Fab, V domains shown)
# VH: B3 VH with R33W, I34M, S56G, V68A, R72G, T74K
# VL: B1 VL with I29V, L37M, A38N, R58Q
# B5: Fab clone 129(T8)(E12) (Fab, V domains shown)
# VH: B3 VH with R33W, I34L, V68A, R72G, T74K
# VL: B1 VL with I29V, N31S, L37M, A38N, R58L
# B6: Fab clone 129(T34) (Fab, V domains shown)
# VH: B3 VH with R33W, I34M, S56G, E82Q
# VL: B1 VL with I29V, L37M, A38N, K46Q, A47P, R58Q
# B7: Fab clone 129(T8)(H8xE10)(10B)(E2) (Fab, V domains shown)
# VH: B3 VH with S56G, S105T
# VL: B1 VL
# B8: Fab clone 129(T8)(H8xE10)(4B) (Fab, V domains shown)
# VH: B3 VH with R72G
# VL: B1 VL
# B9: Fab clone 129(C14) (Fab, V domains shown)
# VH: B3 VH with R33W, I34M, S56G, T74K, E82H
# VL: B1 VL with I29V, L37M, A38N, K46Q, R58Q, T97E
# B10: Fab A5, clone 129(T8)(H8xE10)(10B)(A5) (Fab, V domains shown)
# VH: B3 VH with S56A, S105T
# VL: B1 VL
# notes: purified on Ni-NTA; also called A5 (Fab)
# B11: Fab clone 129(T8)(H8xE10) (Fab, V domains shown)
# VH: B3 VH with V68A, R72G, T74K
# VL: B1 VL
# B12: Fab clone 129(T26) (Fab, V domains shown)
# VH: B3 VH with R33W, I34M, S56G, R72L, T74K, E82Q
# VL: B1 VL with I29V, L37M, A38N, A47P, R58Q, T97A
# B13: Fab clone 129(C2) (Fab, V domains shown)
# VH: B3 VH with R33W, I34M, S56G, R72G, E82Q, R106K
# VL: B1 VL with I29V, L37M, A38N, K46Q, A47P, R58Q, S69T, T97E
# B14: Fab clone 129(T8)(H8xE10)(9A) (Fab, V domains shown)
# VH: B3 VH with V68A, T74K
# VL: B1 VL
# B15: Fab clone 129(C26) (Fab, V domains shown)
# VH: B3 VH with R33W, I34M, S56G, R72G, T74K, R106S
# VL: B1 VL with I29V, L37M, A38N, K46Q, R58Q, T97S
# B16: Fab clone 129(C16) (Fab, V domains shown)
# VH: B3 VH with R33W, I34M, S56G, R72L, E82Q, R106K
# VL: B1 VL with I29V, L37M, A38N, A47P, I52M, R58Q, T97E
# B17: Fab clone 129(T8)(H9) (Fab, V domains shown)
# VH: B3 VH with R33W, I34R, S56G, V68A, R72G, T74K
# VL: B1 VL with I29V, L37M, A38N
# B18: Fab clone 129(C28) (Fab, V domains shown)
# VH: B3 VH with R33W, I34M, S56G, V68A, R72G, E82Q, R106Q
# VL: B1 VL with I29V, L37M, A38N, K46Q, R58Q
# B19: Fab clone 129(T8)(E10) (Fab, V domains shown)
# VH: B3 VH with I34L, S56G, K65E, V68A, R72G, T74K
# VL: B1 VL
# notes: Light chain changes are the same as in A5
# B20: Fab clone 129(T8)(H8) (Fab, V domains shown)
# VH: B3 VH with V68A, R72G, T74K
# VL: B1 VL with I29V, L37M, A38T, R58L
# B21: Fab clone 129(T8)(H8xE10)(10B)(C7) (Fab, V domains shown)
# VH: B3 VH with S56T, S105T
# VL: B1 VL
# B22: Fab clone 129(T6) (Fab, V domains shown)
# VH: B3 VH with R33W, I34M, S56G, R72G, E82Q, R106K
# VL: B1 VL with I29V, L37M, A38N, K46Q, R58Q, T97E
# B23: Fab clone 129(C36) (Fab, V domains shown)
# VH: B3 VH with R33W, I34M, S56G, R72L, T74K, E82Q
# VL: B1 VL with I29V, L37M, A38N, A47P, R58Q, T97A
# B24: Fab 2256 (parent) (Fab, V domains shown)
# VH: B2 VH
# VL: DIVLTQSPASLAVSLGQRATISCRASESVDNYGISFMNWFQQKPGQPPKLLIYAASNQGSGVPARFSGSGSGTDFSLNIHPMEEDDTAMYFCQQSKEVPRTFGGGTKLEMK
# Biological target: Rat trkC on trigeminal neurons (rat, UniProt Q03351 32-864)
# Test: cell-based or functional assay
# Rat trkC on trigeminal neurons, sequence (Q03351 32-864): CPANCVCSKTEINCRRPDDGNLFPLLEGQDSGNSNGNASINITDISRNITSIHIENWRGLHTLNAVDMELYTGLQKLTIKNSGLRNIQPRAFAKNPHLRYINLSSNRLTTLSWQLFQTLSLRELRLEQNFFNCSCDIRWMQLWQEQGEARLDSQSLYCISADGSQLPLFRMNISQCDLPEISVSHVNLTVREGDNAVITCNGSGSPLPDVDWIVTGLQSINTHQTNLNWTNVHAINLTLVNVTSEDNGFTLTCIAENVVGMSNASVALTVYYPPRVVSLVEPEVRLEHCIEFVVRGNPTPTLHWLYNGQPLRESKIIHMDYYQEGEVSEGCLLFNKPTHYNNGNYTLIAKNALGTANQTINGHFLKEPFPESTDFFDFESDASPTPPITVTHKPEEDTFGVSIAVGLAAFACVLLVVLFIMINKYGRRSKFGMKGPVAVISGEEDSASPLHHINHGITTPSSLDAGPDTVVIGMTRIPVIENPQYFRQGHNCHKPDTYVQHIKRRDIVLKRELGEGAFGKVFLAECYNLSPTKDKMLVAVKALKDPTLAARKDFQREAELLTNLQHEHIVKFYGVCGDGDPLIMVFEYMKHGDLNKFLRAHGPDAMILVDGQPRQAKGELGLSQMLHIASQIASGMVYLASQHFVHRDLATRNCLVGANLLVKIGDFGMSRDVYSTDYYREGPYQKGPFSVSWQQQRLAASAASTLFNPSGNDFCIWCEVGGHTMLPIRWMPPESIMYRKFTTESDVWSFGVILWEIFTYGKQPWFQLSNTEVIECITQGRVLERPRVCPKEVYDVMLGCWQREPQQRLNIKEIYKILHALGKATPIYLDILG
Binder,"EC50, neuron survival [pM]","EC50, rat trigeminal neuron survival assay [nM]"
B1,1,
B2,,~5

# Biological target: T1, Human trkC (KIRA assay) (human, UniProt Q16288 32-839, limits assumed)
# Test: cell-based or functional assay
# T1 sequence (Q16288 32-839 limits assumed): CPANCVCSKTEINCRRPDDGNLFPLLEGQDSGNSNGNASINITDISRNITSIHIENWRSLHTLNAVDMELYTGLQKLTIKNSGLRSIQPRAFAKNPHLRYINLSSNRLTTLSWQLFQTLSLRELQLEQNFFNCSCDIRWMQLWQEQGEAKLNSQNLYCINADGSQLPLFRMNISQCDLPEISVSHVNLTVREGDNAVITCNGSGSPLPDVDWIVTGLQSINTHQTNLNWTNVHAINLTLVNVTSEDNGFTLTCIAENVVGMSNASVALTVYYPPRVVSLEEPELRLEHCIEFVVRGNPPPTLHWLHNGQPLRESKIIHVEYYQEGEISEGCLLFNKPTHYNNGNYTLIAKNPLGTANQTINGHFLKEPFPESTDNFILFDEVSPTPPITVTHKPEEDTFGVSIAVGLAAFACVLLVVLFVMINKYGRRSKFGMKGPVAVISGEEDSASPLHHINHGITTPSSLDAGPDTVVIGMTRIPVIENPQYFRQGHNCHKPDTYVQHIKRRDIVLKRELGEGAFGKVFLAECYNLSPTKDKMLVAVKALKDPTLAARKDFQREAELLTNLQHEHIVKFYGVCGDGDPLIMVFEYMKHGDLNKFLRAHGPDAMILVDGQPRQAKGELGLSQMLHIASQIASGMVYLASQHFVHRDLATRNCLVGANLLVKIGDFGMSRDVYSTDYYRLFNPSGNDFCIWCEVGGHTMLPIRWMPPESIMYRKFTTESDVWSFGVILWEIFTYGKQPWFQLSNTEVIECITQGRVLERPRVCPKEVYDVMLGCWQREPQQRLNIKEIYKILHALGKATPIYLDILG
row,"EC50, KIRA assay [nM]",Binder
1,~40,B2

# Biological target: T2, Human trkC-Fc fusion protein (human, UniProt Q16288 32-429)
# T2 construct: Immobilised on CM5 chip for BIAcore; also called htrkC; not shown: Fc part not described
# Test: BIAcore SPR, Fab over immobilised human trkC-Fc
# Experimental: (§1) Affinities of anti-trkC Fabs and monoclonal antibodies were determined using the BIAcore 3000™ surface plasmon resonance (SPR) system (BIAcore, INC, Piscaway N.J.). CM5 chips were activated with N-ethyl-N′-(3-dimethylaminopropyl)-carbodiimide hydrochloride (EDC) and N-hydroxysuccinimide (NHS) according to the supplier's instructions. Human or rat trkC-Fc fusion protein was diluted into 10 mM sodium acetate pH 5.0 and injected over the activated chip at a concentration of 0.005 mg/mL. Using variable flow time across the individual chip channels, two ranges of antigen density were achieved: 200-400 response units (RU) for detailed kinetic studies and 500-1000 RU for screening assays. The chip was blocked with ethanolamine. […] HBS-EP buffer (0.01M HEPES, pH 7.4, 0.15 NaCl, 3 mM EDTA, 0.005% Surfactant P20) was used as running buffer for all the BIAcore assays. […] The concentrations of the Fab proteins are determined by ELISA and/or SDS-PAGE electrophoresis using a Fab of known concentration (as determined by amino acid analysis) as a standard. Kinetic association rates (kₒₙ) and dissociation rates (koff) are obtained simultaneously by fitting the data to a 1:1 Langmuir binding model (Karlsson, R. Roos, H. Fagerstam, L. Petersson, B. (1994). Methods Enzymology 6. 99-110) using the BlAevaluation program. Equilibrium dissociation constant (KD) values are calculated as koff/kₒₙ.
# (§2) We prepared antibody clones bearing the CDR and/or framework region substitution mutations shown in Table 1 and determine KD and other kinetic parameters using BIAcore analysis as described herein.
koff [s⁻¹],Kd [nM],kon [M⁻¹ s⁻¹],Binder
0.0008,,,B3
0.0016,,,B4
0.0009,,,B5
0.0012,,,B6
0.00036,0.25,1.4e+06,B7
0.002,,,B8
0.0017,,,B9
0.00037,0.28,1.3e+06,B10
0.001,,,B11
0.0012,,,B12
0.0025,,,B13
0.0003,,,B14
0.007,,,B15
0.0025,,,B16
0.0015,,,B17
0.0019,,,B18
0.0016,,,B19
0.0006,,,B20
0.00047,1.1,420000,B21
0.0034,,,B22
0.002,,,B23

# Biological target: T2, Human trkC-Fc fusion protein
# Test: BIAcore SPR; value used in the footnote to calculate KD of the mutants
row,kon [M⁻¹ s⁻¹],Binder
1,500000,B24

# Biological target: T1, Human trkC (KIRA assay)
# Test: cell-based or functional assay
# Remark: another data set of the same source
row,"EC50 (read off the curve), KIRA [nM]",Binder
1,~0.1,B1

# Biological target: T3, Rat trkC-Fc fusion protein (rat, UniProt Q03351 32-429)
# T3 construct: Immobilised on CM5 chip for BIAcore; not shown: Fc part not described
# Test: BIAcore SPR, Fab over immobilised rat trkC-Fc
# Experimental: as §1
koff,Kd [nM],kon [M⁻¹ s⁻¹],Binder
0.01 s⁻¹,,,B3
0.0094 s⁻¹,6,1.5e+06,B7
0.0289 s⁻¹ and 0.0627 s⁻¹,,,B8
0.0267 s⁻¹,19,1.3e+06,B10
0.09 s⁻¹,,,B11
0.03 s⁻¹,39,780000,B21

# Biological target: T2, Human trkC-Fc fusion protein
# Test: BIAcore SPR, human trkC-Fc on chip; KD calculated from koff with 2256 kon 5E5 1/Ms
row,Kd [nM],Binder
1,1.6,B3
2,3,B4
3,1.8,B5
4,2.3,B6
5,4,B8
6,3.2,B9
7,2,B11
8,2.3,B12
9,4.7,B13
10,0.6,B14
11,13.2,B15
12,4.7,B16
13,3,B17
14,3.6,B18
15,3.2,B19
16,1.2,B20
17,6.4,B22
18,3.8,B23

# Biological target: T2, Human trkC-Fc fusion protein
# Test: BIAcore SPR, Fab on human trkC
# Experimental: as §1, §2
Kd [nM],koff [s⁻¹],Binder
0.28,0.00037,B10
40,0.02,B24

# Biological target: T4, Human trkA (human, UniProt P04629 33-423, limits assumed)
# T4 construct: BIAcore essentially as for trkC; construct not described
# Test: BIAcore SPR
# T4 sequence (P04629 33-423 limits assumed): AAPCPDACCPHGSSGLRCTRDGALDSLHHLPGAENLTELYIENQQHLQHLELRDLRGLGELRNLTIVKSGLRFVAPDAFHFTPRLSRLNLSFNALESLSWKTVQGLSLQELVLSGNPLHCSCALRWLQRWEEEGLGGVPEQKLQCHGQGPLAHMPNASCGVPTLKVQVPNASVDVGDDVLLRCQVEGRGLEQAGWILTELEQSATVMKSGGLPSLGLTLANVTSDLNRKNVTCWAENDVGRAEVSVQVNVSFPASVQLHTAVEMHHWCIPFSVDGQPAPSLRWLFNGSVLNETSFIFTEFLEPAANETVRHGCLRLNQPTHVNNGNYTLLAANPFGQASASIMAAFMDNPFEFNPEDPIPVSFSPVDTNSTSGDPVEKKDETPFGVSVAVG
row,binding result,Binder
1,no binding,B1

# Biological target: T2, Human trkC-Fc fusion protein
# Test: BIAcore SPR
fold improvement of affinity over parent antibody 2256 [fold],Kd [nM],Binder
200,,B10
,~62,B2

# Biological target: T5, Rat trkA (rat, UniProt P35739 33-418, limits assumed)
# T5 construct: BIAcore essentially as for trkC; construct not described
# Test: BIAcore SPR
# T5 sequence (P35739 33-418 limits assumed): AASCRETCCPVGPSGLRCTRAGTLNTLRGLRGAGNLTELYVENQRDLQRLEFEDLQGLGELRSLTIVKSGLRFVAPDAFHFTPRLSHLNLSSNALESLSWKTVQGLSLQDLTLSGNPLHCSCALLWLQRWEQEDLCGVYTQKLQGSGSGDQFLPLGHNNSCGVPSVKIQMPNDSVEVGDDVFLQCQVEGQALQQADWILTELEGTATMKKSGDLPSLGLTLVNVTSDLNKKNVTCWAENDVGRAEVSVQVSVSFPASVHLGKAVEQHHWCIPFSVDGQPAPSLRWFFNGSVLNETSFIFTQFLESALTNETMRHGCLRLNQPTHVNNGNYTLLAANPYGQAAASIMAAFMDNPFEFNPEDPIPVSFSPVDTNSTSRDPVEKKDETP
row,binding result,Binder
1,no binding,B1

# Biological target: T6, Rat trkB (rat, UniProt Q63604 32-429, limits assumed)
# T6 construct: BIAcore essentially as for trkC; construct not described
# Test: BIAcore SPR
# T6 sequence (Q63604 32-429 limits assumed): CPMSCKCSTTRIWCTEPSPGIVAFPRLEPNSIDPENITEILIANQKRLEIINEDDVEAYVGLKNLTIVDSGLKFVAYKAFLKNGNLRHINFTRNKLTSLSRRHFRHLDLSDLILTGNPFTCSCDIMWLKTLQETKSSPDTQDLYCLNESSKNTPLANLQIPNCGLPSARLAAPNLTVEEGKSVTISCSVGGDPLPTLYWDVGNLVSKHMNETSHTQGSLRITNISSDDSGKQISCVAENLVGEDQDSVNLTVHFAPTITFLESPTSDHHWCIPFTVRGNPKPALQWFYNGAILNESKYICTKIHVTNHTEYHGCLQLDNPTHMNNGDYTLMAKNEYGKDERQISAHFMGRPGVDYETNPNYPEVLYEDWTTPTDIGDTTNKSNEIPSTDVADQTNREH
row,binding result,Binder
1,no binding,B1

# Biological target: T7, Human trkB (human, UniProt Q16620 32-430, limits assumed)
# T7 construct: BIAcore essentially as for trkC; construct not described
# Test: BIAcore SPR
# T7 sequence (Q16620 32-430 limits assumed): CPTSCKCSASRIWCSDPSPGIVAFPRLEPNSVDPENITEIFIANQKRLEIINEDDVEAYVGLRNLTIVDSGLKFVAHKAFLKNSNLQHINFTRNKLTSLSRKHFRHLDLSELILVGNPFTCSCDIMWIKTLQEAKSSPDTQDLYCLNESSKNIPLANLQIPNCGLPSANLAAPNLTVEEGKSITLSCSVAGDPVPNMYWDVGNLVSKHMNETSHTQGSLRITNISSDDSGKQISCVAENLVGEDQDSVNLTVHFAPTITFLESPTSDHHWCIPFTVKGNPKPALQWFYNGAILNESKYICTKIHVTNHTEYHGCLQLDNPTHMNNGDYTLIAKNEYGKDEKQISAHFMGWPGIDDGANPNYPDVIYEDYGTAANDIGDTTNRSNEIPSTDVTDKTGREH
row,binding result,Binder
1,no binding,B1
